“And” between values parts separate entries of the source, which are not always exact repeats. Equal values may be shown once.
Tests used:
[1] = target: RING_(MUL1):UBE2D2 complex (UniProt Q969V5); assay: ITC
[2] = target: UBE2D2 (UniProt P62837); assay: ITC
[3] = target: p53 transactivation domain (residues 1–73) (human) (UniProt P04637); assay: NMR titration
Sequence of p53 transactivation domain (residues 1–73) (human) (P04637 1-73): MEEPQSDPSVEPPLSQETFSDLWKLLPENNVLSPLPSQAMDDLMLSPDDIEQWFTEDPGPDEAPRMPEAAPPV

Sequence of p53 transactivation domain (residues 1–73) (P04637 1-73): as above
Sequence of RING domain of MUL1 (residues 298–352) (Q969V5 298-352): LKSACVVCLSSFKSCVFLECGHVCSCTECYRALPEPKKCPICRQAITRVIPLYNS

| Substance | Kd [1] | dH [1] | stoichiometry N [1] | Kd [3] | further results |
| --- | --- | --- | --- | --- | --- |
| RING domain of MUL1 (residues 298–352) (from UniProt Q969V5 298-352) (domain or fragment) |  |  |  |  | Kd [2]: 43 µM and 28 µM and 13 µM; dH [2]: 1.5 kcal/mol |
| RING_(MUL1):UBE2D2 complex (from UniProt Q969V5 298-352; P62837 1-147) |  |  |  | 171 µM |  |
| p53 transactivation domain (residues 1–73) (from UniProt P04637 1-73) (domain or fragment) | 111 µM | -0.673 kcal/mol | 1.01 |  |  |

Second part, led by results:

| Kd [1] | dH [1] | stoichiometry N [1] | Kd [3] | Substance | further results |
| --- | --- | --- | --- | --- | --- |
| 184 µM and 175 µM and 193 µM | -1.13 kcal/mol and -1.15 kcal/mol and -1.12 kcal/mol | 0.88 and 0.89 and 0.87 |  | AD39 peptide (p53 residues 39–57) |  |
|  |  |  | 735 µM | UBE2D2 (from UniProt P62837 1-147) (enzyme) |  |
